Data as given in patent publication EP2246362B1, “Polymer conjugates of mutated neublastin” (Biogen Idec MA Inc., priority 2003, dated 2004).

Legend:
c-Ret = biological target: T1, c-Ret (Mus musculus, UniProt O35118+P35546); assay: Kinase Receptor Activation (KIRA) ELISA: neublastin dependent phosphorylation of c-Ret in NB41A3-mRL3 cells; type: cell-based, murine
T1 construct: NB41A3-mRL3 cells, an adherent murine neuroblastoma cell line which expresses Ret and GFRα3; endogenous in cells; host or cells: NB41A3-mRL3 (murine neuroblastoma)
T1 sequence (P35546 29-1115): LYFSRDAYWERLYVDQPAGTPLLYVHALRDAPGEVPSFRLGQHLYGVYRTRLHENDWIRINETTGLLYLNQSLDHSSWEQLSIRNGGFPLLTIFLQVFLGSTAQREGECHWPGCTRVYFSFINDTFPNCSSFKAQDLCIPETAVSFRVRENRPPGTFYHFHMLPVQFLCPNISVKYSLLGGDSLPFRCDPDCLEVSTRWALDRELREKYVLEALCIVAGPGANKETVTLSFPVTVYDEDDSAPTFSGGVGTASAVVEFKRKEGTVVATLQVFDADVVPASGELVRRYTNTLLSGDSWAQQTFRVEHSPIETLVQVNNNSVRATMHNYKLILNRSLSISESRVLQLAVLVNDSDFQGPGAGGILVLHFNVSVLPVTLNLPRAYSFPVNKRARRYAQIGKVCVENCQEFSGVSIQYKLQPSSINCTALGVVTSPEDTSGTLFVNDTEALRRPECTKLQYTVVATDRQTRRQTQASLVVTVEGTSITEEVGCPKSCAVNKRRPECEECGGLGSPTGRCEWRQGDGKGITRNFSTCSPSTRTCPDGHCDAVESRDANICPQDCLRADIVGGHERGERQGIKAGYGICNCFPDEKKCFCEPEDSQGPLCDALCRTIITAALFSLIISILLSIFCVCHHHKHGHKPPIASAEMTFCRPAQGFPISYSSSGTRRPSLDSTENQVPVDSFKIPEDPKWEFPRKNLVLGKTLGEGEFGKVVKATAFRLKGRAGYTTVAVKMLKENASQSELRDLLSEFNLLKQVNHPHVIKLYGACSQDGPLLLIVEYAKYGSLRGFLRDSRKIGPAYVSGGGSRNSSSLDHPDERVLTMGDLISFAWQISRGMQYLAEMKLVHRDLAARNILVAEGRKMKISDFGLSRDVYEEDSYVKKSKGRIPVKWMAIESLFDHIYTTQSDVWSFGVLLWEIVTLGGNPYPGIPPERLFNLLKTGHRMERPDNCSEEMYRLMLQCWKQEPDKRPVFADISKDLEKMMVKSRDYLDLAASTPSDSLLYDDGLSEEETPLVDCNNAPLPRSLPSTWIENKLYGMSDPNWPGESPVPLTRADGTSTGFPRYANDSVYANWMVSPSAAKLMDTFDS
T1 sequence (O35118 29-397): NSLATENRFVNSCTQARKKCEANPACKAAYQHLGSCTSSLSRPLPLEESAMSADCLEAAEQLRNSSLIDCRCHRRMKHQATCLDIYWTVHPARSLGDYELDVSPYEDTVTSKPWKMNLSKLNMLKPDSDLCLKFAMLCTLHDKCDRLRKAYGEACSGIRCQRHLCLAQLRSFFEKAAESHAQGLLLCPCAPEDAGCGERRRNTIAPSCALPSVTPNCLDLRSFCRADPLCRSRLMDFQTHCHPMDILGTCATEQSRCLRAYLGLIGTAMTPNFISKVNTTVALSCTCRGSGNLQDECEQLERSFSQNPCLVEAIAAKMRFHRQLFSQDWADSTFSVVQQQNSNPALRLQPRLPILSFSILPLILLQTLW
Method: The potency of PEGylated mutated rat neublastin was measured using neublastin dependent activation/ phosphorylation of c-Ret as a reporter for neublastin activity in an ELISA that was specific for the presence of phosphorylated RET. NB41A3-mRL3 cells, an adherent murine neuroblastoma cell line which expresses Ret and GFRα3, were plated at 2 x 10^5 cells per well in 24-well plates in Dulbecco's modified eagle medium (DMEM), supplemented with 10 % fetal bovine serum, and cultured for 18 h at 37 °C and 5 % CO2.
The cells were washed with PBS, and treated with serial dilutions of neublastin in 0.25 mL of DMEM for 10 min at 37°C and 5 % CO2. Each sample was analyzed in duplicate. The cells were washed with 1 mL of PBS, and lysed for 1h at 4 °C with 0.30 mL of 10 mM Tris HC1, pH 8.0, 0.5 % Nonidet P40, 0.2 % sodium deoxycholate, 50 mM NaF, 0.1 mM Na3 VO4,1 mM phenylmethylsulfonyl fluoride with gently rocking the plates. The lysates were further agitated by repeated pipetting and 0.25 mL of sample was transferred to a 96-well ELISA plate that had been coated with 5 µg/mL of anti-Ret mAb (AA.GE7.3) in 50 mM carbonate buffer, pH 9.6 at 4°C for 18 h, and blocked at room temperature for one hour with block buffer (20 mM Tris HC1 pH 7.5, 150 mM NaCl, 0.1% Tween-20 (TBST) containing 1 % normal mouse serum and 3 % bovine serum albumin).
After a 2 h incubation at room temperature, the wells were washed 6-times with TBST. Phosphorylated Ret was detected by incubating the wells at room temperature for 2 h with 2 µg/mL of horseradish peroxidase (HRP)-conjugated anti-phosphotyrosine 4G10 antibody in block buffer, washing 6-times with TBST, and measuring HRP activity at 450 nm with a colorometric detection reagent. The absorbance values from wells treated with lysate or with lysis buffer were measured and the background corrected signal was plotted as a function of the concentration of neublastin present in the activation mixture.
Neublastin activity was determined by its ability to stimulate c-Ret phosphorylation in NB41A3-mRL3 cells using the KIRA ELISA described in Example 3. Phosphorylated Ret was detected by incubating (2 hours) the captured receptor with HRP-conjugated phosphotyrosine antibody (4G10; 0.2 µg per well). Following the incubation, the wells were washed six times with TBST, and the HRP activity detected at 450 nm with a colorimetric assay. The absorbance values from wells treated with lysate or with lysis buffer alone were measured, background corrected, and the data plotted as a function of the concentration of neublastin present in the activation mixture.

[1] = design: species or system mice; settings: mouse, in vivo
Excerpt: The pharmokinetic properties of various PEGylated and non-PEGylated mutated neublastin products in rat and mouse models were examined (see Table 8 for summary of results). The analysis of the PEGylated […] samples are complicated by the presence of adducts comprising 2, 3 and 4 PEGs per molecule, which each will display a different PK profile. In early PK studies, mice were used to facilitate screening through a variety of candidates and routes of administration. […] This difference in bioavailability was particularly pronounced following i.p. administration. Levels in mice reached 1600 ng/mL after 7 hr and remained at 400 ng/mL after 24 hr. In contrast, rat levels were constant at 100 ng/mL for 4-48 hr. Two surprising and unexpected results emerged from the PK studies summarized in Table 8: 1) PEGylation of the amino-terminal amino acids of non-glycosylated neublastin was not sufficient to increase serum exposure substantially, and 2) PEGylation of the amino-terminal amino acid(s) of neublastin together with modification (e.g. PEGylation or glycosylation) of amino acid 95 was sufficient to increase serum exposure substantially.

[2] = Pharmacokinetic studies in rats (circulating levels after IV, s.c. or i.p. administration); type: in vivo, Sprague Dawley rats
Method: The proteins were below the threshold of detection in the serum following subcutaneous administration. To increase bioavailability of neublastin, PEGylated forms of mutated neublastin were constructed.
The pharmokinetic properties of various PEGylated and non-PEGylated mutated neublastin products in rat and mouse models were examined (see Table 8 for summary of results).
Following a 1 mg/kg IV administration in Sprague Dawley rats, peak levels of PEGylated mutated neublastin of 3000 ng/mL were detected after 7 minutes, and levels of 700 ng/mL were detected after 24 h, 200 ng/mL after 48 h, and 100 ng/mL after 72 h. In contrast for non-PEGylated mutated neublastin N95K following a 1 mg/kg IV administration, levels of 1500 ng/mL were detected after 7 minutes, but then the levels quickly dropped to 70 ng/mL after 3 h and were not detectable after 7 h. The effects of PEGylation were even more pronounced in animals treated with PEGylated neublastin by subcutaneous administration.
Following a 1 mg/kg s.c. administration, circulating levels of PEGylated neublastin reached a maximum of 200 ng/mL after 24 h and remained at this level for the duration of the three day study.
The analysis of the PEGylated N95K samples are complicated by the presence of adducts comprising 2, 3 and 4 PEGs per molecule, which each will display a different PK profile. In early PK studies, mice were used to facilitate screening through a variety of candidates and routes of administration. […] This difference in bioavailability was particularly pronounced following i.p. administration. Levels in mice reached 1600 ng/mL after 7 hr and remained at 400 ng/mL after 24 hr. In contrast, rat levels were constant at 100 ng/mL for 4-48 hr.

[3] = system: Chung L5/L6 spinal nerve ligation ("SNL") model; assay: Reversal of tactile allodynia and thermal hyperalgesia in the spinal nerve ligation model (Von Frey and Hargreave's tests); type: in vivo, Sprague-Dawley male rats
Method: Here, we describe studies to address the reversal effect ofpegylated N95K neublastin on tactile allodynia and thermal hyperalgesia in the Chung L5/L6 spinal nerve ligation ("SNL") model. Sprague-Dawley male rats (230 - 380g) were divided into two groups. All rats received the spinal nerve ligation. One group of rats (n=6) was administered vehicle by subcutaneous injection. A second group of rats (n=6 per group) were administered pegylated N95K neublastin (3,(4) X 10 kDa PEG NBN106-N95K) by subcutaneous injection at 10 µg/kg. 3(,4) X 10 kDa PEG NBN106-N95K, comprised neublastin protein that was E. coli-derived and contained an Asn-to-Lys amino acid substitution at position 95, then truncated (amino-terminus truncation of 7 amino acids; NBN106), and finally pegylated with an average of 3.3 PEG moieties per dimer ofNBN, using methoxylpoly(ethylene glycol)-succinimidyl propionate (SPA-PEG) with a molecular mass of 10,000 Da as the reactant. The vehicle consisted of 5 mM phosphate and 150 mM sodium chloride at pH 6.5. Subcutaneous injections were administered on days 3, 5, 7, 10, 12 and 14 following the operation (post-SNL). The Von Frey (Chaplan et al. (1994), J. Neurosci. Meth. 53: 55-63) and Hargreave's (Hargreaves et al. (1988), Pain. 32: 77-88) behavioral tests were used to monitor tactile and thermal responses, respectively. These pain responses were monitored prior to the spinal nerve ligation to establish baseline responses, on day 2 post-SNL to verify the presence of tactile and thermal hyperalgesia, and then on days 3, 5, 7, 10, 12, 14 and 15 post-SNL. To assess statistical significance of drug treatment relative to vehicle treatment, a 1-way analysis of variance (1-way ANOVA) was carried out followed by a post-hoc Student Neuman Keuls (SNK) test.

B1: 3 (,4) X 10 kDa PEG NBN106-N95K: mixed population of NBN106-N95K homodimers conjugated to three or four 10 kDa PEG moieties, average 3.3 PEG per dimer (conjugate)
chain: ARATDARGCRLRSQLVPVSALGLGHSSDELIRFRFCSGSCRRARSPHDLSLASLLGAGALRSPPGSRPISQPCCRPTRYEAVSFMDVKSTWRTVDHLSATACGCLG
activity / potency in the KIRA ELISA (in words) (c-Ret; compared with wild-type NBN113 / mature form): indistinguishable from that of the wild-type NBN113 material | effect of two freeze-thaw cycles on potency (c-Ret; potency in KIRA ELISA after two freeze-thaw cycles): no effect | levels in mice after 7 hr ([1]; ip): 1600 ng/mL | levels in mice after 24 hr ([1]; ip): 400 ng/mL | Exposure in Mice After s.c. Administration ([1]; sc): ++ | levels after 7 minutes ([2]; 1 mg/kg IV, Sprague Dawley rats, 7 minutes): 3000 ng/mL | levels after 24 h ([2]; 1 mg/kg IV, Sprague Dawley rats, 24 h): 700 ng/mL | levels after 48 h ([2]; 1 mg/kg IV, Sprague Dawley rats, 48 h): 200 ng/mL | maximum circulating levels ([2]; 1 mg/kg s.c., maximum after 24 h, remained at this level for the three day study): 200 ng/mL | normalization of pain behaviors (tactile and thermal hyperalgesia) ([3]; 3 µg/kg s.c. on days 3, 5, 7, 10, 12 and 14, data not shown, onset somewhat slower): significant normalization | reversal of both types of neuropathic pain (tactile allodynia and thermal hyperalgesia) ([3]; 10 µg/kg s.c. on days 3, 5, 7, 10, 12 and 14 post-SNL, rats): substantial and statistically significant reversal | time after initiation of administration at which effect on thermal sensitivity and tactile allodynia first became statistically significant ([3]; 10 µg/kg s.c., rats): 4 days | time after initiation of administration at which effect on thermal sensitivity and tactile allodynia reached a plateau ([3]; 10 µg/kg s.c., rats): approximately 4 days
